Measured values as given in the supplement of paper PMC12764529.
± gives the half width of the 95% confidence interval.

What was measured:
[1] = folding stability dG unfold from trypsin proteolysis; higher = more stable
Method in brief: (§1)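 Unfolding free energy was derived, per protease or combined, by relating Bayesian-fitted K50 values from sequencing counts to a sequence-predicted unfolded-state K50 and a shared folded-state K50. The underlying digests exposed cysteine-free mini-proteins under 80 residues, in a PA-tagged cDNA display construct, to trypsin and chymotrypsin at 11 threefold-diluted concentrations and to a no-protease condition. A filter kept only designs with AlphaFold2 dimer inter-PAE above 15.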

[2] = folding stability dG unfold from chymotrypsin proteolysis; higher = more stable
Method in brief: as §1

[3] = folding stability dG unfold (combined trypsin and chymotrypsin); higher = more stable
Method in brief: as §1

Sequence	folding stability dG unfold [1] [kcal/mol]	folding stability dG unfold [2] [kcal/mol]	folding stability dG unfold [3] [kcal/mol]
SAGGGSRTLTRGDKTYVFTTAPPPTGGRYVTLTVVDPATGAPAPVYTMDVTDGTDEEALARLLAAPLSAGGS [r16_378_JUSTAS]	-0.038 ± 0.11	0.847 ± 0.091	0.581 ± 0.038
SAGGGSSMPVPVRVAEFNVPDSRPEELIERAKELLEADEIDVLVVPSPAAQEALKAAFPDFPVPVLVRSAGG [r13_353_JUSTAS]	-0.646 ± 0.085	-0.339 ± 0.17	-0.459 ± 0.11
SAGGGSVPAEHLVSVSYEKPPWSDEPVITVTALKGGKPVTFTIPSSLSEEEALEAVEKAIAAGPFALGSAGG [r13_225_JUSTAS]	0.638 ± 0.055	0.579 ± 0.13	0.675 ± 0.099
SAGGGSVSTSVTPDPATGLVTVTVTLTRTTPTPSPGTTTTTTTITVTVQVPPSYQPTATITVSVPASLSAGG [r13_450_JUSTAS]	3.49 ± 0.16	3.91 ± 0.12	3.72 ± 0.082
SAGGGTATVTTAEAELPGDVRVTTATVTLPDGSAVRVVTLSSSVPNATATVVVPLPANGPGEGVIVLPSAGG [r13_323_TrMRF]	1.44 ± 0.073	0.785 ± 0.056	1.15 ± 0.069
SAGGGTEIEYNPETGEIIVKVNPLIPYPFEPGSETIPLPFEGDPEAAEQEIRDLIEEHPDASFDIKPSSAGG [r13_284_TrMRF]	0.638 ± 0.085	-1.32 ± 0.17	0.0628 ± 0.061
SAGGGTYYLIFKITETKTDPKTGKTTTSEKVIVDPLENPGSISAEEIAKLKEELEPKGYTVEIEIKPKSAGG [r13_926_JUSTAS]	0.654 ± 0.045	1.41 ± 0.27	1.07 ± 0.23
SAGGGVEITREPDPAGGRRVRFTDPSGRTFEVEITPDSLRITRPDGTTRSAAVPPDADLRLPYSELASAGGS [r16_203_JUSTAS]	-0.625 ± 0.12	0.418 ± 0.041	0.134 ± 0.057
SAGGGVKFELVDIESDGDGKYIAKIKVYNENGELIEEIEIEVKGLKNVTLTIPLINKPKKIEIKVTPESAGG [r13_427_TrMRF]	0.752 ± 0.03	1.51 ± 0.093	1.21 ± 0.12
SAGGGVMIAIKKIDPKNGKLEIEIWMPEGFEDPDQRKEMLEMADSLADRLQELHGIPVKVTIHPFPNSAGGS [r16_304_TrROS]	2.31 ± 0.083	2.27 ± 0.076	2.31 ± 0.12
SAGGGWPWVVKFEPPDGKEMEFVIPFNPKKNWYWIKMPGNGKTVPVPLDDLEEQPGFQIDEIEPLDDLSAGG [r13_994_TrROS]	-0.0768 ± 0.33	1.31 ± 0.48	1 ± 0.27
SAGGIDLDNMSPEEAKERARDTVREFRELFPPEKKYKFKIKVTIDYRDPGNGRQRTVTVEAPIEFTPDSAGG [r13_385_TrROS]	0.636 ± 0.12	0.862 ± 0.28	0.753 ± 0.24
SAGGIELKINIQMPAEEAVEFIRNFIEELGYEIEDIEVERDPENGMVSVPIEFEIKPVPPVDPEDQKSAGGS [r16_584_TrROS]	0.144 ± 0.076	0.166 ± 0.26	0.315 ± 0.19
SAGGIELTIPLPNGMLIKIKIESIHIQPVPVWRKKKDPDGKPKDWEPQPFTFSISIRFSIEIYDPDDLSAGG [r13_848_TrROS]	3.47 ± 0.2	5.07 ± 0.16	4.97 ± 0.35
SAGGIEVEAESERVEGGVLRVTVTAADPDGVPIVLELPVPPGAPEITEEEARELAVEAALKVAAELASAGGS [r8_123_TrMRF]	0.887 ± 0.034	0.517 ± 0.034	0.699 ± 0.053
SAGGIKEAFEAGVEVKDVEVPVLFPDGSEAEVVEVDPVDDGVRVVLRNPVTGELFEREIPPELIEPRPSAGG [r13_340_TrMRF]	0.653 ± 0.019	0.172 ± 0.053	0.484 ± 0.07
SAGGIKIHVEREGNYYRIKIKWPNNNEISIPFDSPEDAEEQAEEQLQKQFPNMPPENVKIDEIEPYPPSAGG [r13_887_TrROS]	0.173 ± 0.11	0.504 ± 0.15	0.469 ± 0.099
SAGGIKIPPGQEIEMPFKVRVGGEPYPFRIEIKILKVNPDNGHFLIKMEIEDPENGQPIAEFTFFIPPSAGG [r13_582_TrROS]	2.64 ± 0.25	4.4 ± 0.23	3.35 ± 0.39

Sequence	folding stability dG unfold [1] [kcal/mol]	folding stability dG unfold [2] [kcal/mol]	folding stability dG unfold [3] [kcal/mol]
SAGGIKLPPWFKKLADILQEEGYKIRIEPVNGYWVIRVDGKVYPSPEDMEDNRDDPGVDRVIVIPFPSAGGS [r16_275_TrROS]	2.78 ± 0.14	3.45 ± 0.12	3.26 ± 0.15
SAGGITIEWERNPDGYPNIKIQIRAPNGKKVAKLPIQFDPNDGGMTKLDLKKLLKEINLPPNVEVEFISAGG [r13_479_TrROS]	1.45 ± 0.05	1.22 ± 0.13	1.34 ± 0.13
SAGGITVEVEYERTEGGYYRVTVTLRDPDGNPIEIEYPMPPGDPGMTQDEMKDKAVEWALKIAQELNSAGGS [r8_123_TrROS]	3.94 ± 0.12	3.971 ± 0.031	3.96 ± 0.088
SAGGIVAADVSPDGTVYPISPEAVRALVDAIRDRYGFDVKVTITEARYGDRWVTVIPIELTGLSPEEASAGG [r13_790_TrMRF]	1.31 ± 0.04	1.54 ± 0.02	1.5 ± 0.08
SAGGIWIKVPDGGWVRIQIEHPGNGRPREETIPGGDIKDLIKSLSSSPDFPNYKVKIEVWDGGKPKPISAGG [r13_914_TrROS]	0.923 ± 0.03	1.71 ± 0.058	1.46 ± 0.14
SAGGIYRVEIEIPGGNTIEFMIPGATEEMAKEIANELAQHFNPGDIKIEVYPIPPVKVDPEDGKWKWSAGGS [r8_167_TrROS]	0.579 ± 0.039	1.41 ± 0.1	1.13 ± 0.095
SAGGKAKIVEIKYNEETGTVTIKIKNEDGEEYEISIKLPPGAKIEIDEDGNITIKDIPAEQIEVRKVSAGGS [r16_515_TrROS_Hall]	0.895 ± 0.03	1.68 ± 0.056	1.46 ± 0.12
SAGGKDIKVTVEKVGDELYILVEASKEEVEALLKAGKKEITIEINGKKVKVKAVKLPDGTVLFRVRLESAGG [r13_171_TrROS_Hall]	3.28 ± 0.064	4.23 ± 0.052	3.96 ± 0.065
SAGGKEEKVVEIEIKKEKLKKSKDGKVYSAEEIAKKLKKELPEENVEVEIVSYDKEKGVVKIKIKVKSAGGS [r16_284_TrROS_Hall]	1.51 ± 0.12	1.74 ± 0.18	1.7 ± 0.36
SAGGKEFIEKLGNNATIEIDTPNGGKVKINLKIEKVKPGKYVIKGEVTVYNPNTNKPVKFPYTLTIESAGGS [r8_473_TrMRF]	2.39 ± 0.2	3.75 ± 0.076	3.13 ± 0.18
SAGGKEIYKVNKKDFKKILDYLKKKKNAKITIIIKNKPIEIPIKDLEENYKKIKGKPNEPFYLEIEYSAGGS [r16_377_TrMRF]	1.75 ± 0.087	2.28 ± 0.034	2.14 ± 0.077
SAGGKEKIILIPAKDKEKVLELLKALADEGKTVRIINLKTGKVEEVTVDELLALAEKTNEPILIEVESAGGS [r16_263_TrROS_Hall]	3.69 ± 0.18	2.98 ± 0.11	3.34 ± 0.21
SAGGKEKYKVIEIKVKPEDVTAEELQAELEKKGYEIYVDGKKIKPGESVEDLLAKNPNATLTIVVKESAGGS [r8_38_TrROS_Hall]	0.925 ± 0.17	1.94 ± 0.11	1.71 ± 0.2
SAGGKEVKIKIETKTLPNGVKVVKMTVELPDGKTVEMVMVENKKTGKMVMFEVKLDKNGKIVEIKAFPSAGG [r13_323_TrROS_Hall]	2.66 ± 0.16	3.43 ± 0.16	3.33 ± 0.41
SAGGKEVKITIEYDEETKEVRVTIEKDGKEITVTMTAEELKKLLEELEKLPPVVVKDKDGKEKVVLLSAGGS [r8_332_TrROS_Hall]	1.14 ± 0.037	-0.472 ± 0.26	0.696 ± 0.13
SAGGKEVKVIRITMSRDQLRDLIEKLFGKPLSLEEILKKLPPGAKVEIRVEENENGEVTVEIVIVKKPSAGG [r13_869_TrROS_Hall]	3.2 ± 0.23	4.14 ± 0.11	3.99 ± 0.26
SAGGKEVYKVEIEVRLVKVPPGATVTLEEENGELTLTVTAPPGEEVLVIRIKVEKVKLPKPEKKKKKKSAGG [r13_804_TrROS_Hall]	2.22 ± 0.27	3.45 ± 0.18	2.79 ± 0.45
SAGGKIEEILKKLNLKPGEKAKIKDIKIEVKTVTVTEKKYKNGKLVEEKEKTVTVVKIEIKIELEKPKSAGG [r13_482_TrROS_Hall]	2.6 ± 0.18	3.97 ± 0.18	3.22 ± 0.26
